# Earlier results, collected in patent publication US8232228B2 (priority 2002, dated 2012).
# B1: HarpinEa: Hypersensitive response elicitor protein from Erwinia amylovora, amino acid sequence SEQ. ID. No. 3 (protein)
# chain: MSLNTSGLGASTMQISIGGAGGNNGLLGTSRQNAGLGGNSALGLGGGNQNDTVNQLAGLLTGMMMMMSMMGGGGLMGGGLGGGLGNGLGGSGGLGEGLSNALNDMLGGSLNTLGSKGGNNTTSTTNSPLDQALGINSTSQNDDSTSGTDSTSDSSDPMQQLLKMFSEIMQSLFGDGQDGTQGSSSGGKQPTEGEQNAYKKGVTDALSGLMGNGLSQLLGNGGLGGGQGGNAGTGLDGSSLGGKGLQNLSGPVDYQQLGNAVGTGIGMKAGIQALNDIGTHRHSSTRSFVNKGDRAMAKEIGQFMDQYPEVFGKPQYQKGPGQEVKTDDKSWAKALSKPDDDGMTPASMEQFNKAKGMIKRPMAGDTGNGNLQARGAGGSSLGIDAMMAGDAINNMALGKLGAA
# modifications: Erwinia amylovora - harpinEa
molecule,measurement,value
B1,heat stable at 100° C.,at least 10 minutes
